Test results: publication PMC5110521, “EstDZ3: A New Esterolytic Enzyme Exhibiting Remarkable Thermostability” (Frontiers in Microbiology, 2016)

What was measured:
Test in all cases: purified protein
Format in all cases: biochemical, Dictyoglomus thermophilum
Conditions in all cases: 25 mM Tris-HCl pH 8, 0.05% Triton X-100, 75°C (standard reaction), substrate 0.1 to 1 mM
[1] = substrate: CCCCCCCCCCCC(=O)Oc1ccc([N+](=O)[O-])cc1
[2] = substrate: CC(=O)Oc1ccc([N+](=O)[O-])cc1
[3] = substrate: CCCC(=O)Oc1ccc([N+](=O)[O-])cc1
[4] = substrate: CCCCCCCCCC(=O)Oc1ccc([N+](=O)[O-])cc1
[5] = substrate: CCCCCCCC(=O)Oc1ccc([N+](=O)[O-])cc1

B1: EstDZ3 (Dictyoglomus thermophilum) (protein)
chain: MTENREPVVLKNQGQKIFGVIHIPEKTPAPFVLFCHGFTGTKIEPHRIFVKTAEALAKEGIGALRIDFRGSGDSEGSFKDMTVEGEVSDAMVAIEYLSQNNLVDKEKIGILGLSMGGAVASITSGRNPLIKSCVLWSAVCHFDIFFNRSPEEVSRIKDYGDFIDLGGNPVGKKFLSEIVNIKPLEEIKKRSIPVLIIHGSGDMVVPIQHAYDYFNGLKDTHKVKLEIIEGADHTFNSIEWEEKVIEKTVNWFKETL
notes: full-length ORF, 256 residues (modelled 1 to 256), no signal peptide; pLATE52 poly-histidine tag kept; E. coli BL21(DE3); heat treatment and Ni-NTA; forward primer encodes MTENREP
B1 gave a Km [1] of 610 ± 140 µM, a Vmax [1] of 357 µmol/min/mg and a kcat [1] of 743 s⁻¹. For the same protein, the kcat/Km [1] was 1.27e+06 M⁻¹ s⁻¹, the Km [2] was 300 ± 70 µM and the Vmax [2] was 355 µmol/min/mg. The kcat [2] was 740 s⁻¹, the kcat/Km [2] was 2.43e+06 M⁻¹ s⁻¹ and the Km [3] was 150 ± 20 µM. The Vmax [3] was 906 µmol/min/mg, the kcat [3] was 1890 s⁻¹ and the kcat/Km [3] was 1.25e+07 M⁻¹ s⁻¹. The Km [4] was 170 ± 10 µM, the Vmax [4] was 387 µmol/min/mg and the kcat [4] was 80 s⁻¹. For the same protein, the kcat/Km [4] was 471000 M⁻¹ s⁻¹, the Km [5] was 190 ± 10 µM and the Vmax [5] was 501 µmol/min/mg. For the same protein, the kcat [5] was 104 s⁻¹ and the kcat/Km [5] was 557000 M⁻¹ s⁻¹.
